Results from patent US20190248883 (published 2019).

What was measured:
[1] = molecular target: GRO-beta (human, UniProt P19875); experiment: ELISA
[2] = molecular target: GRO-alpha (human, UniProt P09341); experiment: ELISA
[3] = molecular target: IP-10 (human, UniProt P02778); experiment: ELISA
[4] = molecular target: T1, IL-8 (human, UniProt P10145); experiment: SPR, 37C, bivalent
[5] = molecular target: T1, IL-8; experiment: SPR, 25C, bivalent
[6] = molecular target: T1, IL-8; experiment: SPR, 25C
[7] = molecular target: T1, IL-8; experiment: SPR, 37C

T1 sequence (P10145 28-99): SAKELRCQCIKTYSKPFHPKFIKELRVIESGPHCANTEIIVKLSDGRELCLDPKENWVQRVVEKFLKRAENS
GRO-beta, sequence (P19875 35-107): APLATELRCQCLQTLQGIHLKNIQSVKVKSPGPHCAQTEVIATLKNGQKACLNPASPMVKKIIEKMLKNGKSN
GRO-alpha, sequence (P09341 35-107): as the sequence (P19875 35-107) above, with P2S, L3V, L20P, K27N, Q48R, M58I, K68N, N69S, G70D counted along it
IP-10, sequence (P02778 22-98): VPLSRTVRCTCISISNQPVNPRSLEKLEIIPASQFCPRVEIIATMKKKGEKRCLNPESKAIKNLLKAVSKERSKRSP

| binding result [1] | binding result [2] | binding result [3] | Kd [4] [nM] | Kd [5] [nM] | Kd [6] [nM] | Kd [7] [nM] | Binder |
| --- | --- | --- | --- | --- | --- | --- | --- |
| no binding | no binding | no binding | 0.02 | 0.01 | – | – | 10F8 IgG1,kappa (antibody, V domains shown) VH: QVQLVESGGGVVQPGRSLRLSCTASGFTFSHYGMYWVRQAPGKGLEWVAVIWYDGSYEYNADSVKGRFTISRDNSKNTLYLQMNSLRAEDTAVYYCARDRVGLFDYWGQGTLVTVSS VL: EIVLTQSPGTLSLSPGERATLSCRASQSISSSYLAWYQQKPGQAPRLLIYGPSSRATGIPDRFSGSGSGTDFTLTISRLEPEDFAVYYCQQYAGSLTFGPGTKVDIK |
| – | – | – | – | – | 0.194 | 0.372 | 10F8 Fab (antibody, V domains shown) VH: QVQLVESGGGVVQPGRSLRLSCTASGFTFSHYGMYWVRQAPGKGLEWVAVIWYDGSYEYNADSVKGRFTISRDNSKNTLYLQMNSLRAEDTAVYYCARDRVGLFDYWGQGTLVTVSS VL: EIVLTQSPGTLSLSPGERATLSCRASQSISSSYLAWYQQKPGQAPRLLIYGPSSRATGIPDRFSGSGSGTDFTLTISRLEPEDFAVYYCQQYAGSLTFGPGTKVDIK |
